Target: T1, human CD123 (interleukin-3 receptor alpha subunit) (human, UniProt P26951 19-378)
T1 construct: Native CD123 on patients' cells; also called IL-3Rα; Interleukine-3 Receptor alpha
Assay: average CD123 receptor saturation on patients' cells after intravenous IMGN632, Schedule A, Cohorts 1-6 (method not described)

T1 sequence (P26951 19-378 limits assumed): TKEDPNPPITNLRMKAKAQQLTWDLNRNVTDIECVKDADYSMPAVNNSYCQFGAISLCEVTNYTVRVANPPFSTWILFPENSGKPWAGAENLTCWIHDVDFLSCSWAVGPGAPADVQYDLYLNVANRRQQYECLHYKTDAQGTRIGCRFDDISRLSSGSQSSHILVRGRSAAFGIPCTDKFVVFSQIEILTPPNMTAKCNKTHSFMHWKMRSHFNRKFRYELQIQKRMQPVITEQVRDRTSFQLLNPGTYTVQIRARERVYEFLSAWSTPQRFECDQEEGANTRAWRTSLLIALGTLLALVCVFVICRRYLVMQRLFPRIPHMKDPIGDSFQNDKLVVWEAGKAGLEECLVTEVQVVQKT

binding result: binds
B1: IMGN632 (immunoconjugate of the anti-CD123 huCD123-6Gv4.7 antibody linked to DGN549-C) (antibody, V domains shown)
VH: QVQLVQSGAEVKKPGASVKVSCKASGYIFTSSIMHWVRQAPGQGLEWIGYIKPYNDGTKYNEKFKGRATLTSDRSTSTAYMELSSLRSEDTAVYYCAREGGNDYYDTMDYWGQGTLVTVSS
VL: DIQMTQSPSSLSASVGDRVTITCRASQDINSYLSWFQQKPGKAPKTLIYRVNRLVDGVPSRFSGSGSGNDYTLTISSLQPEDFATYYCLQYDAFPYTFGQGTKVEIKR
modifications: DGN549-C cytotoxic agent (peptide linker) covalently linked through a cysteine residue (huCD123-6Gv7-C442 heavy chain); average of 1.5 to 2.1 DGN549-C per antibody, mostly the sulfonated form
notes: also called anti-CD123 immunoconjugate; G4723A-DGN549-C

From patent US20230312735A1 (IMMUNOGEN, published 2023)
